Reference: paper PMC10570038, “Cell-type specific regulator RBPMS switches alternative splicing via higher-order oligomerization and heterotypic interactions with other splicing regulators” (Nucleic Acids Research, 2023)

Key:
[1] = target: the molecule itself; test: AUC; sedimentation velocity, 40 000 rpm, 20°C, 20 mM HEPES, 1 mM TCEP, pH 7.9, 500 mM KCl; FL and ΔC20 at equal molar concentration (0.46 and 0.57 mg/ml); continuous c(s) model
[2] = target: the molecule itself; test: SEC; size exclusion chromatography of purified untagged recombinant protein; compared with size markers (443 kDa marker, void volume)

B1: recombinant untagged full-length rat RBPMS-A (natural protein)
chain: not shown
notes: RBPMS isoform A (RBPMS-A), rat, cDNA NCBI XM_006253240.2; Exists as a mixture of dimers and higher-order oligomers; From pET15b-TEV-RBPMS-A; also called FL RBPMS; RBPMS-A FL; source: E. coli BL21(DE3), purified (HisTrap, TEV cleavage, Mono Q, Superdex 200); not shown: His6, N-terminal, cleaved
stoichiometry N [1]: ~21
stoichiometry N [2]: 2
